In IntAct's records for PubMed 29892012:

Tests used:
[1] = target: aagab_human AAGAB (UniProt Q6PD74)
[2] = target: ntaq1_human NTAQ1 (UniProt Q96HA8)
[3] = target: T1, dest_human DSTN (UniProt P60981)
T1 sequence: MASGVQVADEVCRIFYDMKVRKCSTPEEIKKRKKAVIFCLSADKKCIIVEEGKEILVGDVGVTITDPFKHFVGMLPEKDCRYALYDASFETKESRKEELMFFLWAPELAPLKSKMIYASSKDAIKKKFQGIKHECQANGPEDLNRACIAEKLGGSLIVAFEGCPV

[4] = target: ctsr1_human CATSPER1 (UniProt Q8NEC5)
[5] = target: creb3_human CREB3 (UniProt O43889)
[6] = target: itf2_human TCF4 (UniProt P15884)
itf2_human TCF4, sequence (P15884 whole entry): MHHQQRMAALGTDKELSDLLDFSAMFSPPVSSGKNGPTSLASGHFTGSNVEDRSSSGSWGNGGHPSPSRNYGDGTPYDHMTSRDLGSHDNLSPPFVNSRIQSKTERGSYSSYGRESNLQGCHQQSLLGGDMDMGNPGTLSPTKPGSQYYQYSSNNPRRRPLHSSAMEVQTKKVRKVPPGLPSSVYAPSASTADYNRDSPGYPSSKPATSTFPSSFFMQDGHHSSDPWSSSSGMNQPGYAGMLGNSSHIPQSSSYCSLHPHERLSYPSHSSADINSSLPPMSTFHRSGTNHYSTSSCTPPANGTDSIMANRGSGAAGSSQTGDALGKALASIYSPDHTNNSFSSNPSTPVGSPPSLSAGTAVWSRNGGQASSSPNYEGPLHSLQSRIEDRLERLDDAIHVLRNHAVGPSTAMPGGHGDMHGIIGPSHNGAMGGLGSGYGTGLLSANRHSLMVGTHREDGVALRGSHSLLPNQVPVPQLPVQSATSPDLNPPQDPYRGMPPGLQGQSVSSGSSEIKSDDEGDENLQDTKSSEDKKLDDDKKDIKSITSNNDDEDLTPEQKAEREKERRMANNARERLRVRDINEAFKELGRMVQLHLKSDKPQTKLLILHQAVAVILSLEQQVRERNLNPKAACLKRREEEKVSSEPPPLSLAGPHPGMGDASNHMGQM

[7] = target: cep76_human CEP76 (UniProt Q8TAP6)
[8] = target: inca1_human INCA1 (UniProt Q0VD86)
inca1_human INCA1, sequence (Q0VD86 whole entry): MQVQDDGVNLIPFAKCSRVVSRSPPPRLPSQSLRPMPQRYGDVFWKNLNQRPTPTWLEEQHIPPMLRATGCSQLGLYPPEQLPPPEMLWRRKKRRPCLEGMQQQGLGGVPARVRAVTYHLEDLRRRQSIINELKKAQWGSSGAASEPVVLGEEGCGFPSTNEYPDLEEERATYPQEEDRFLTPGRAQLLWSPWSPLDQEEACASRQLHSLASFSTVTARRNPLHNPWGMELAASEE

[9] = target: kr108_human KRTAP10-8 (UniProt P60410)
kr108_human KRTAP10-8, sequence (P60410 whole entry): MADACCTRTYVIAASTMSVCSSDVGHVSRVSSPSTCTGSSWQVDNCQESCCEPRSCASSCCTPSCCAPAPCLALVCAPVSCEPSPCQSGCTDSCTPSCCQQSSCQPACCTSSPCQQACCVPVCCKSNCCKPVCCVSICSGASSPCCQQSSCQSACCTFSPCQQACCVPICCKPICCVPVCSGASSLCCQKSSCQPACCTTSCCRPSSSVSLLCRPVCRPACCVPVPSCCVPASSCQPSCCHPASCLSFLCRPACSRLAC

[10] = target: gors2_human GORASP2 (UniProt Q9H8Y8)
[11] = target: T2, dpyl5_human DPYSL5 (UniProt Q9BPU6)
T2 sequence: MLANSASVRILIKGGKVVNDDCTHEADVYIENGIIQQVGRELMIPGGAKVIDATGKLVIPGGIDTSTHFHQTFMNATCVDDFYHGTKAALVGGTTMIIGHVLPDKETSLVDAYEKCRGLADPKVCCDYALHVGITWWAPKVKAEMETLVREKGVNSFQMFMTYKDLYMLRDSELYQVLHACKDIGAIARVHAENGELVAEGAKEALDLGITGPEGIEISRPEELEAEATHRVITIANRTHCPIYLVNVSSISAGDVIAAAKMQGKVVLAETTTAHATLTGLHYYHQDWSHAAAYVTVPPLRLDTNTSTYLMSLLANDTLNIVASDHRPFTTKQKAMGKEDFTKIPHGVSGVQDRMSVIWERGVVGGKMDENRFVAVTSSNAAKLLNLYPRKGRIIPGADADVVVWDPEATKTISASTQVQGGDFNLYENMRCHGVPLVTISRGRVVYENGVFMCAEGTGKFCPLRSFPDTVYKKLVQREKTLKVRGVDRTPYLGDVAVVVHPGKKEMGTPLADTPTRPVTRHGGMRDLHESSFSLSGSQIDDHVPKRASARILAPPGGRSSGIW

[12] = target: dpyl3_human DPYSL3 (UniProt Q14195)
[13] = target: dpyl2_human DPYSL2 (UniProt Q16555)
[14] = target: ZNF385C (UniProt Q66K41)
[15] = target: hnrll_human HNRNPLL (UniProt Q8WVV9)
[16] = target: prr3_human PRR3 (UniProt P79522)
[17] = target: rbm7_human RBM7 (UniProt Q9Y580)
[18] = target: qki_human QKI (UniProt Q96PU8)
[19] = target: ytdc1_human YTHDC1 (UniProt Q96MU7)
[20] = target: pex39_human PEX39 (UniProt Q5I0X4)
[21] = target: tyk2_human TYK2 (UniProt P29597)
[22] = target: cirbp_human CIRBP (UniProt Q14011)
[23] = target: rbm42_human RBM42 (UniProt Q9BTD8)
[24] = target: grap2_human GRAP2 (UniProt O75791)
[25] = target: abi2_human ABI2 (UniProt Q9NYB9)
abi2_human ABI2, sequence (Q9NYB9 whole entry): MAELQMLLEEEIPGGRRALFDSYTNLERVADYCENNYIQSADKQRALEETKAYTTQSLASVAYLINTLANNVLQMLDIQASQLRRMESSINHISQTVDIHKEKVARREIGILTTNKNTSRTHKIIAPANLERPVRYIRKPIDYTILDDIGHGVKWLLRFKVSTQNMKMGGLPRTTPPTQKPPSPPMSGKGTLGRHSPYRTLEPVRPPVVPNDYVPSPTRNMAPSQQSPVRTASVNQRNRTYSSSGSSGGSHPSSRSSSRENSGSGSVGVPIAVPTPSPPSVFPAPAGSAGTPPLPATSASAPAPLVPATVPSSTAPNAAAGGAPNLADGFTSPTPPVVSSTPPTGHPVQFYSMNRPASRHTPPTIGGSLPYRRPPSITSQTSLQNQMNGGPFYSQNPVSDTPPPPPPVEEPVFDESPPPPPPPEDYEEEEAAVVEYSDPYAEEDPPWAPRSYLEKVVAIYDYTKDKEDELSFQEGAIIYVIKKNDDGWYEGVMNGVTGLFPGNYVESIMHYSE

[26] = target: U2AF1 (UniProt Q01081)
[27] = target: zbt24_human ZBTB24 (UniProt O43167)
[28] = target: aakb2_human PRKAB2 (UniProt O43741)
[29] = target: pdli7_human PDLIM7 (UniProt Q9NR12)
pdli7_human PDLIM7, sequence (Q9NR12 whole entry): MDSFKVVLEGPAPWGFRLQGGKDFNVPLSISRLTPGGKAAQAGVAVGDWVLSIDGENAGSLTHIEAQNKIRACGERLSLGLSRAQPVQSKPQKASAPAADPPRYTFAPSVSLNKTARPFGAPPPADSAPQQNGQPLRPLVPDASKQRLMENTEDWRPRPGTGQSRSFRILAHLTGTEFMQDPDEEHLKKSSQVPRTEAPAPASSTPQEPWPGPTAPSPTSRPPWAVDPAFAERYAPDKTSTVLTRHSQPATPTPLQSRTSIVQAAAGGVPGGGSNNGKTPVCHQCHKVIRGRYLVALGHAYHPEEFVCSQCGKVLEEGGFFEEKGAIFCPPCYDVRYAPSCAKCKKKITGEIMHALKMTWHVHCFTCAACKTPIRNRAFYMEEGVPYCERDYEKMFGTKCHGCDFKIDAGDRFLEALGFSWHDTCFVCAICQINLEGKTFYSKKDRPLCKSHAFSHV

[30] = target: erep1_human ENTREP1 (UniProt Q15884)
[31] = target: fxl18_human FBXL18 (UniProt Q96ME1)
[32] = target: leg9b_human LGALS9B (UniProt Q3B8N2)
leg9b_human LGALS9B, sequence (Q3B8N2 whole entry): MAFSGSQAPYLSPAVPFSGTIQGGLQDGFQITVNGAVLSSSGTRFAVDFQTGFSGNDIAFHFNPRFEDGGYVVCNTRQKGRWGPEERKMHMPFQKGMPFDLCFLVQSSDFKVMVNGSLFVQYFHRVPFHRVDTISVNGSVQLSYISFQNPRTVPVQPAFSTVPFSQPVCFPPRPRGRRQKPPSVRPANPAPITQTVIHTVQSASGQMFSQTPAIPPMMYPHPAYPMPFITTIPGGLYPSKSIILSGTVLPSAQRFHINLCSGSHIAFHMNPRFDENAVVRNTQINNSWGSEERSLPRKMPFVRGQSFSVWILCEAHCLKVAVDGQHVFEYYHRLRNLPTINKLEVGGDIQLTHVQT

[33] = target: hnrl1_human HNRNPUL1 (UniProt Q9BUJ2)
[34] = target: inca1_human INCA1 (UniProt Q0VD86); remark: listed apart in the source
[35] = target: tri23_human TRIM23 (UniProt P36406)
[36] = target: itf2_human TCF4 (UniProt P15884); remark: listed apart in the source
[37] = target: taso2_human TASOR2 (UniProt Q5VWN6)
[38] = target: ikzf3_human IKZF3 (UniProt Q9UKT9)
[39] = target: neca2_human NECAB2 (UniProt Q7Z6G3)
[40] = target: kr108_human KRTAP10-8 (UniProt P60410); remark: listed apart in the source
[41] = target: efs_human EFS (UniProt O43281)
[42] = target: stat3_human STAT3 (UniProt P40763)
[43] = target: zn446_human ZNF446 (UniProt Q9NWS9)
[44] = target: kr103_human KRTAP10-3 (UniProt P60369)
[45] = target: mdfi_human MDFI (UniProt Q99750)
[46] = target: kr101_human KRTAP10-1 (UniProt P60331)
[47] = target: kr105_human KRTAP10-5 (UniProt P60370)

Zinc finger protein 559 (Homo sapiens), Q9BR84 K62I, sequence (Q9BR84 whole entry K62I): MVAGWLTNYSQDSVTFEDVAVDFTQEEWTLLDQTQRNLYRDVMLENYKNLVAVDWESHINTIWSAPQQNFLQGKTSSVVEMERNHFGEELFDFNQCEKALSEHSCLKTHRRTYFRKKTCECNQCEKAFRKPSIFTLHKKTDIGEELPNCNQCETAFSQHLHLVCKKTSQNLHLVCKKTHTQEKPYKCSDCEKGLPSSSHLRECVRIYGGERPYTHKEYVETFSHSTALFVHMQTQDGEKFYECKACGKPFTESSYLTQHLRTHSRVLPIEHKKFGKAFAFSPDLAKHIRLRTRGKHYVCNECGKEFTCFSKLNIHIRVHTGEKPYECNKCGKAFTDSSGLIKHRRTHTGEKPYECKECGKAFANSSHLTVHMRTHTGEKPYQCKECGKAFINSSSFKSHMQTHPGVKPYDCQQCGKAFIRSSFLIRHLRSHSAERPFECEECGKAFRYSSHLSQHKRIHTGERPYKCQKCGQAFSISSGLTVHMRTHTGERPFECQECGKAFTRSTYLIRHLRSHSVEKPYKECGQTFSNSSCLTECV
Serine/threonine-protein kinase Nek6 (Homo sapiens), Q9HC98 R195C, sequence (Q9HC98 whole entry R195C): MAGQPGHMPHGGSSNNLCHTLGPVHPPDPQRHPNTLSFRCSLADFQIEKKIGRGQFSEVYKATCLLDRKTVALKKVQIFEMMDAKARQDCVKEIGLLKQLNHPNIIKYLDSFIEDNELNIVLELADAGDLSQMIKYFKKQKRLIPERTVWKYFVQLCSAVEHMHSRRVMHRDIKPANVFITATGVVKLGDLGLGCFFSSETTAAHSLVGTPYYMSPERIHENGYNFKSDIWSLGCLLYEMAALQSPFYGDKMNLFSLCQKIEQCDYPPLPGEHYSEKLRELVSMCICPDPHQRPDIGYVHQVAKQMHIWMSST
Tyrosine-protein kinase Blk (Homo sapiens), P51451 I338T, sequence (P51451 whole entry I338T): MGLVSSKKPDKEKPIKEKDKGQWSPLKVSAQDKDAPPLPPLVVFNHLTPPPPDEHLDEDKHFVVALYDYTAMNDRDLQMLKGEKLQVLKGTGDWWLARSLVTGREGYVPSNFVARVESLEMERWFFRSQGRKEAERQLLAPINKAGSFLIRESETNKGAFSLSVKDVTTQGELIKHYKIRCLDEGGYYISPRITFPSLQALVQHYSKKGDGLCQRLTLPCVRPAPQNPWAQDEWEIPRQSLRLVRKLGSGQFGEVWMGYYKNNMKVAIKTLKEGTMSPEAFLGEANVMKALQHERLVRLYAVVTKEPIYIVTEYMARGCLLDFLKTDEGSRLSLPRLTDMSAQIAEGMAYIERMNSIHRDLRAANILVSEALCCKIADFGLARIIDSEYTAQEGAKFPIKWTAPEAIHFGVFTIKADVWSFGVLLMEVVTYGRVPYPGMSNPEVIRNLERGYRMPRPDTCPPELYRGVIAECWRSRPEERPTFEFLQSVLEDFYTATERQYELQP
Apolipoprotein A-II (Homo sapiens), P02652 Q71R, sequence (P02652 whole entry Q71R): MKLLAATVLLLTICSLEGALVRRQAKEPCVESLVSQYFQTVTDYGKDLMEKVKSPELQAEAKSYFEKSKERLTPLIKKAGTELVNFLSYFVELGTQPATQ
ntaq1_human NTAQ1, sequence (Q96HA8 whole entry): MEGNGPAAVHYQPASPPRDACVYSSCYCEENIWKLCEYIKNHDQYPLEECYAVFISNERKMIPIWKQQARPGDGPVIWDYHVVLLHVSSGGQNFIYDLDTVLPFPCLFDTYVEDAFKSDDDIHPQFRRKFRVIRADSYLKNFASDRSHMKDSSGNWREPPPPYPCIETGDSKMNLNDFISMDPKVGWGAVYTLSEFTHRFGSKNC
ctsr1_human CATSPER1, sequence (Q8NEC5 whole entry): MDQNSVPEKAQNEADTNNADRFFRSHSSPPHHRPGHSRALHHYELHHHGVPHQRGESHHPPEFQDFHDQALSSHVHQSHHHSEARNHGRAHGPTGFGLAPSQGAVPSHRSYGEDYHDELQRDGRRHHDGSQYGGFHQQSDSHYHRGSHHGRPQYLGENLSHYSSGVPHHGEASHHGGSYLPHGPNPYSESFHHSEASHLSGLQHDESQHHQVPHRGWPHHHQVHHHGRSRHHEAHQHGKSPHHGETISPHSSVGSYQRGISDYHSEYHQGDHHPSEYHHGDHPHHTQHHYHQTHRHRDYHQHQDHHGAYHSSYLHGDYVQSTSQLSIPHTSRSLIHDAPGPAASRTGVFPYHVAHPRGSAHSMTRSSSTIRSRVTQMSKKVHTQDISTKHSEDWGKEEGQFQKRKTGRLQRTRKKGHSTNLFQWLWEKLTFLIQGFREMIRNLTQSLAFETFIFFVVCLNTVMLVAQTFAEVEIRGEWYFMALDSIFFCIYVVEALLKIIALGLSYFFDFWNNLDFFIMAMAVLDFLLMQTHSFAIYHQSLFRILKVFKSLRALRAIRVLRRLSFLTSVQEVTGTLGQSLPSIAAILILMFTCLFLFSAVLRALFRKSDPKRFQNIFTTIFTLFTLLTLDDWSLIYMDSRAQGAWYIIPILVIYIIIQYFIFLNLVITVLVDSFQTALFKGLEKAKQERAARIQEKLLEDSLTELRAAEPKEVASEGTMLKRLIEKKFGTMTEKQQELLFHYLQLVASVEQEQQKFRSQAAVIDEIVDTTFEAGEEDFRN

Substance: AP-2 complex subunit sigma (Homo sapiens), P53680 G64D
- effect of a mutation on the interaction [1]: with no effect

Substance: Actin, cytoplasmic 1 (Homo sapiens) (from UniProt P60709) R372C
- effect of a mutation on the interaction [2]: with no effect
- effect of a mutation on the interaction [3]: with no effect

Substance: Apolipoprotein A-II (Homo sapiens), P02652 Q71R
- effect of a mutation on the interaction [4]: with no effect
- effect of a mutation on the interaction [5]: with no effect

Substance: Calcium-binding protein 5 (Homo sapiens), Q9NP86 T59M
- effect of a mutation on the interaction [6]: with no effect
- effect of a mutation on the interaction [7]: with no effect
- effect of a mutation on the interaction [8]: with no effect

Substance: Cyclin-J-like protein (Homo sapiens), Q8IV13 W188R
- effect of a mutation on the interaction [9]: with no effect

Substance: Dihydropyrimidinase-related protein 2 (Homo sapiens) (from UniProt Q16555) R496C
- effect of a mutation on the interaction [10]: disrupting interaction strength
- effect of a mutation on the interaction [11]: with no effect
- effect of a mutation on the interaction [12]: with no effect

Substance: Dihydropyrimidinase-related protein 3 (Homo sapiens), Q14195 V25I
- effect of a mutation on the interaction [13]: with no effect

Substance: Heterogeneous nuclear ribonucleoprotein K (Homo sapiens), P61978 R377H
- effect of a mutation on the interaction [14]: with no effect
- effect of a mutation on the interaction [15]: with no effect
- effect of a mutation on the interaction [16]: with no effect
- effect of a mutation on the interaction [17]: with no effect
- effect of a mutation on the interaction [18]: with no effect
- effect of a mutation on the interaction [19]: with no effect
- effect of a mutation on the interaction [20]: with no effect
- effect of a mutation on the interaction [21]: with no effect
- effect of a mutation on the interaction [22]: with no effect
- effect of a mutation on the interaction [23]: with no effect
- effect of a mutation on the interaction [24]: with no effect
- effect of a mutation on the interaction [25]: with no effect
- effect of a mutation on the interaction [26]: with no effect

Substance: Krueppel-like factor 15 (Homo sapiens), Q9UIH9 G206R
- effect of a mutation on the interaction [27]: with no effect
- effect of a mutation on the interaction [28]: with no effect

Substance: NEDD4-like E3 ubiquitin-protein ligase WWP2 (Homo sapiens), O00308 R178W
- effect of a mutation on the interaction [29]: with no effect
- effect of a mutation on the interaction [30]: with no effect
- effect of a mutation on the interaction [31]: with no effect
- effect of a mutation on the interaction [32]: with no effect
- effect of a mutation on the interaction [33]: with no effect

Substance: Serine/threonine-protein kinase Nek6 (Homo sapiens), Q9HC98 R195C
- effect of a mutation on the interaction [34]: with no effect
- effect of a mutation on the interaction [35]: disrupting interaction strength
- effect of a mutation on the interaction [36]: with no effect
- effect of a mutation on the interaction [37]: disrupting interaction strength
- effect of a mutation on the interaction [38]: disrupting interaction strength
- effect of a mutation on the interaction [39]: disrupting interaction strength

Substance: Solute carrier family 23 member 1 (Homo sapiens), Q9UHI7 L461M
- effect of a mutation on the interaction [40]: with no effect

Substance: Tyrosine-protein kinase Blk (Homo sapiens), P51451 I338T
- effect of a mutation on the interaction [41]: with no effect
- effect of a mutation on the interaction [42]: disrupting interaction strength

Substance: Zinc finger and SCAN domain-containing protein 30 (Homo sapiens), Q86W11 G186S
- effect of a mutation on the interaction [43]: with no effect

Substance: Zinc finger protein 559 (Homo sapiens), Q9BR84 K62I
- effect of a mutation on the interaction [44]: with no effect
- effect of a mutation on the interaction [45]: with no effect
- effect of a mutation on the interaction [46]: with no effect
- effect of a mutation on the interaction [47]: with no effect
